What was measured:
[1] = target: Nck1-SH3.1 (residues 4–59) (human, UniProt P16333 4-59); assay: crystal structure; Nck1-SH3.1 with 2-fold molar excess of Ac-…-NH2; 0.1 M BisTris/HCl pH 6.5, 2 M (NH4)2SO4; space group I212121, two complexes in the asymmetric unit; conditions: both partners purified
[2] = target: Nck1-SH3.1 (residues 4–59) (human, UniProt P16333 4-59); assay: crystal structure; Nck1-SH3.1 (4-59) with 2-fold molar excess of Ac-…-NH2; 0.1 M Bis-Tris/HCl pH 6.5, 2 M (NH4)2SO4; sitting drop, 22 °C; two complexes in the asymmetric unit (5QU2); conditions: both partners purified

B1: minimal CD3ϵ peptide Ac-PPPVPNPDY-NH2 (residues 180–188) (peptide)
peptide: Ac-PPPVPNPDY-NH2
notes: CD3ϵ residues 180–188 (PRS); MM 1109.3 Da; source: synthetic peptide (bought: Biosynthan)
[1]
  binding result: binds

B2: CD3ε-derived peptide Ac-PPPVPNPDY-NH2 (residues 180–188) (peptide)
peptide: Ac-PPPVPNPDY-NH2
notes: also called minimal CD3ε peptide; source: synthetic peptide, from Biosynthan
[2]
  binding result: binds

Source: PMC7278359 (The Journal of Biological Chemistry, 2020)
